Here are results for 2 substances from paper PMC10470402.

The target in the assay is S. pombe HT-Gemin2 (S. pombe) (UniProt P0CU08). The assay is described as follows: pull-down.
Chain of S. pombe HT-Gemin2 (S. pombe) (P0CU08 whole entry): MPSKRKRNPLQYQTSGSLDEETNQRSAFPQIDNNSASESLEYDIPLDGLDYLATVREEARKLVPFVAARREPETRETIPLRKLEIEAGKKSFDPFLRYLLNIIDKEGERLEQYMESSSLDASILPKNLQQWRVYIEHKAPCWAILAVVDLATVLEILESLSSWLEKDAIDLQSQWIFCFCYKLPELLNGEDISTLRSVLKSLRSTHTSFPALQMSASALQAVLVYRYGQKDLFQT

Consider “S. pombe SmD1/SmD2 subcomplex, HT-tag removed (from UniProt O42661 1-117; O14036 1-115)”, for which the percent bound amounted to 4.1%; the percent bound (D1/D2 and F/E/G added together) is 15.1%.

Consider “S. pombe SmF/SmE/SmG subcomplex, HT-tag removed (from UniProt O59734 1-78; Q9USZ3 1-84; O74966 1-77)”, for which the percent bound turned out to be 7.4%; the percent bound (D1/D2 and F/E/G added together) is 9.2%.
